Experimental findings from the supplement of paper PMC12042874 are described below.

A short description of this data set: amyloid nucleation score (Sup35N fusion, yeast selection) (log enrichment); library NNK2; higher = more nucleation; inactive = no reads after selection. In a few lines: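 After 24 hours of induction with 100 μM copper sulfate, psi-negative yeast expressing peptides of 20 random codons fused to Sup35N were grown for 7 days at 30°C on medium lacking adenine and uracil. Input and output plasmid inserts were sequenced with Illumina, and sequences with under 100 input reads were discarded. Scores for nucleation are the DiMSum log enrichment of output over input reads, centred on the mode score of non-aggregating sequences.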

± gives the uncertainty stated by the source.

Turning to LYIVDPSTASKAHTSSLPKS, the amyloid nucleation score was -0.324 ± 0.55.
As for LNLQSLTSHTVKGL, the figure is 0.147 ± 0.54.
With TMVMTVQPPLHLFCLDLMHD, the amyloid nucleation score worked out at 2.24 ± 0.12.
As to YYRYRHLMHLIKWME, the amyloid nucleation score worked out at 0.216 ± 0.53.
As to DMNLRLSEWVDFCSIGLFVK, the amyloid nucleation score was -0.272 ± 0.35.
As for GYAVRRYDLMNLFRSMWASC, the figure is -0.739 ± 0.79; as for NADLMGIKSVKGS, -0.352 ± 1.1; as for FPFKILSVKPH, 3.45 ± 0.14.
With NRYTLDVVNFSNNYSISSNR the figure was 1.76 ± 0.12; with VLVLDR, 3.46 ± 0.073; with FWLLSTCGV, -0.408 ± 0.29.
With TYIQPVARRKHLA the figure was 0.101 ± 0.39; with LILRSVSNYAITIMFAFDTR, 4.39 ± 0.096.
Turning to CDMFLSYLRT, the amyloid nucleation score turned out to be 1.74 ± 0.23.
As for GYLQGLCRG, the figure is -0.047 ± 1.1; as for TARLLSPQ, -0.376 ± 0.76.
With AYLLWVRYIYEHDSTIGWLI, the amyloid nucleation score entry is “inactive”.
Take PFSLVTSITFFWSIMCIYAM: the amyloid nucleation score was 0.57 ± 0.81.
The substance SMNVRTKLDWSTTRVDSGLR registered an amyloid nucleation score of 0.662 ± 0.21.
For the substance GSFENSTRTYVSIIRR, the amyloid nucleation score was found to be 4.73 ± 0.045.
With ATQVMMGVAEYACLYNCTHM the figure was 8.223 ± 0.078.
As for GIMGDGGGHALWTEEELKVR, the figure is 1.01 ± 0.23.
With AKGMGPKNDTTYYFPVSVFE the figure was -0.213 ± 0.48; with CVICHYHLCLRQCIWSG, 5.373 ± 0.033; with SRVSLYQML, -1.01 ± 0.34.
For SGSRMFCVRHMIMSGGVLGS, the amyloid nucleation score is -0.451 ± 0.54.
As for GVYPICV, the figure is 0.416 ± 0.49; as for TNDMVDHVRRSNHDI, 0.871 ± 0.31.
As for WAPFMGVSKSTQTARTGMVM, the figure is -0.146 ± 0.61.
With NLRGETRGVKLCLIWDVGRA the figure was 0.078 ± 0.55; with QFNFCKLAGQPLMFEFIDGV, 5.58 ± 0.059.
For the substance FSTCVVSGSSLYCGGLTLVH, the amyloid nucleation score entry was “inactive”.
In the case of WTTLGGPVGREENGRRQAEG, the amyloid nucleation score is 1.17 ± 0.23.
With FASSEVYTGVSYIIHVSVYS the figure was -0.714 ± 1; with FDLNVVDIFTLCMRKRYTME, “inactive”; with GSCVIM, 1.36 ± 0.67.
With YCGFVFPAWGDLLTNGSPAA the figure was 0.092 ± 0.29.
As for TLRHSKFTSIPVIETGLCGV, the figure is -1.44 ± 1.1; as for SSPHWSK, -0.051 ± 0.37; as for ETHYPPQ, 0.033 ± 0.32.
Turning to KDPLIRDVLDNANQRLVNSV, the amyloid nucleation score result was “inactive”.
As for LVKTFYKKWIVREREFWILR, the figure is -0.176 ± 1.1.
With SFITDRADCRQWLLRNNIFA the figure was -0.771 ± 0.64.
As for QCSHI, the figure is -0.193 ± 0.28.
TSGFSIIRVIVNYIYALETR registered an amyloid nucleation score of 3.86 ± 0.12.
With GSARCNTSFCCQQVYFYGCG the figure was 8.486 ± 0.064; with LVPGYWYMWVTGNVKRVFCD, -1.54 ± 0.62.
As for LYISQSCGRHD, the figure is -0.554 ± 0.22; as for TRIVS, -0.415 ± 0.25.
With CDVRMRVAGRAR the figure was 3.19 ± 0.11.
For AGGWVFFQGESSSLSNTSGS, the amyloid nucleation score result was “inactive”.
With PGLPEERHNCKTYCHRTSRP the figure was 0.016 ± 0.34.
As for PSRPCGLRELAYADSAKQLW, the figure is 1.15 ± 0.34.
Take KDRSQGKCLLGQQRQ: the amyloid nucleation score amounted to 0.782 ± 0.15.
With YVFLGD the figure was 2.35 ± 0.11; with RERCC, “inactive”.
GDTPGSLYCNLISEGAI had an amyloid nucleation score of 0.119 ± 0.76.
Substance NWSFASKVGLQMSKHAVTV registered an amyloid nucleation score of 0.13 ± 0.42.
As for LNSSLLFHNLMVHH, the entry is “inactive”; as for DRRMGLIVPRMSDRTDPFSY, 0.489 ± 0.29; as for VWLSFRVYLVMTSVLVILNC, 1.13 ± 0.11.
In the case of NMMGMAYSV, the amyloid nucleation score amounted to 0.063 ± 1.1.
With FCHCFRGYARDHHRMTQLGN the figure was -0.674 ± 0.76.
With DMWQGEFKLGPRFSDENSQF the figure was -0.172 ± 1.1.
With RMLFVHPVGYGCEAAVGSSW the figure was 1.09 ± 0.23; with GLRWNKFYKCTEVCMCRGSS, 2.58 ± 0.15; with AQFVKWAVNLLGSRYSWYEQ, “inactive”.
Take PQSWCFFPNFDKGLVLVRRQ: the amyloid nucleation score is 0.801 ± 0.82.
As for NDRSSDWCCIPSKLRWSRSG, the figure is 4.1 ± 0.057.
With TLSSKLFCVKASVRSMGPVV the figure was 7.723 ± 0.047; with TPSDGCQHMASVVISI, 0.683 ± 0.8.
In the case of WNLYSLSN, the amyloid nucleation score entry is “inactive”.
Substance YFPPGDA came in with an amyloid nucleation score of -0.47 ± 0.39.
With FDVSFILSL, the amyloid nucleation score is -1.34 ± 1.
With NISDTSMISNGYCIN the figure was 0.154 ± 0.63; with RVIWRQWYNTL, 1.61 ± 0.19.
With YHLKYRGSMGVPCLNTFVWN the figure was 5.15 ± 0.055; with VRIIETGRC, 0.136 ± 0.39.
With IMCRRG the figure was 0.698 ± 0.52; with QWWRYS, 1.17 ± 0.41.
YPISLWLFYGGSGAQTLVVR displayed an amyloid nucleation score of 2.51 ± 0.1.
The substance GEHSGTHNFKCFVSIIRLSR displayed an amyloid nucleation score of 0.305 ± 1.
As for IVLRFFGFMDHSSYRNLFKE, the amyloid nucleation score was -0.375 ± 1.1.
With RLFNTYYSRSFASYGYWLHC the figure was 0.47 ± 0.16.
As for DCSLELVNRRGSGIVQCAGY, the figure is 1.1 ± 0.38; as for SCSERLSMWLRED, 4.62 ± 0.047.
As to ITNDLSLYYVARVGRTDYHF, the amyloid nucleation score turned out to be 1.13 ± 0.12.
With LALFALMLLLF the figure was -0.055 ± 0.26; with KPFELEIRGKGQRHVEVV, 1.61 ± 0.26.
As for DCWNCIISGSSALCAHVQSV, the entry is “inactive”; as for QHSKD, -1.71 ± 0.77; as for NSIRSKDSDLRRYNPLPSTA, 4.46 ± 0.083.
With CYCEEMSMNTFKTCINTGAM the figure was 1.04 ± 0.42; with RFMHGTTCHTKYHRHLSTET, 0.766 ± 0.23; with MCYCLYNVGPCGDGH, 1.23 ± 0.28.
Substance SSSTFCCLWTFDTRVQFLVN showed an amyloid nucleation score of 7.39 ± 0.079.
With KDHRSLSGRDMFRGTLVVVM the figure was 0.328 ± 0.19; with LVNNGRVLSCYICV, 9.171 ± 0.056; with CAIKFPYQFTYLNINNQ, 6.229 ± 0.044.
As for LFWGWITFTKECTNWGATIG, the figure is 0.895 ± 0.58; as for LHSNCRV, 0.343 ± 0.8.
With LELLSLIFSFG, the amyloid nucleation score came to 2.13 ± 0.18.
With AIWSVLYGGRYTMPHSIFGA the figure was 0.448 ± 0.38; with TLDTSYYFLTRVFNHLNISE, -0.776 ± 0.55; with SCGYFITKKEH, -0.679 ± 0.3.
As for GCRAVRTWEPIGVAGEYFGS, the figure is 6.232 ± 0.037.
As for FEGQA, the figure is -1.8 ± 0.54.
Take TRINMGIFCLQDKVPMLRDE: the amyloid nucleation score turned out to be 3 ± 0.082.
WLLILLDISTSDFLQCWIGM: the amyloid nucleation score is -0.037 ± 0.65.
With RLPARLGSS the figure was 0.23 ± 0.25; with LVCSNWCIVPFMYGTRHRKE, 9.299 ± 0.03; with YLYILVRNGGASSVC, -0.635 ± 0.4.
As for RFCRHRMRGILP, the figure is 1.06 ± 0.17; as for FDPLTFFGHRYCMQDMQLSD, -0.027 ± 0.32; as for HCSCVKNSTSTDIEE, “inactive”.
For LPGCTTRLHVNLIGALECCK, the amyloid nucleation score was 0.077 ± 0.35.
IFISRVNDFTVMGGDWSFRG gave an amyloid nucleation score of 3.64 ± 0.083.
As for SPWGPLLAFTSKTNPIQWMT, the figure is -0.196 ± 0.46; as for ESSYVRIQ, 0.13 ± 0.4; as for MPTIRNWVCW, 0.639 ± 0.47.
For the substance VWKNPYIGVHLLHDLKS, the amyloid nucleation score is -0.391 ± 0.21.
SHMIRYRSVDRVHGLFHPQS: the amyloid nucleation score is -0.232 ± 0.37.
With WDQCLMLMCPNE the figure was -0.291 ± 0.64.
As for VIPYILTCWVYFIDCLWRRK, the figure is 0.948 ± 0.66; as for QGLGTRLRDRLTVYCRFTAF, -0.69 ± 0.61.
As for GDKCGFCKNAGPGVKVS, the figure is -0.807 ± 0.79; as for SKAECLMH, -0.547 ± 1.1; as for CRGTQALSYSLS, -0.017 ± 0.76.
FIWSYVLSRGSV had an amyloid nucleation score of -1.03 ± 0.31.
IFHLGLRR returned an amyloid nucleation score of 5.706 ± 0.053.
As for SDLGCLRYRTKGGAVGVDGV, the figure is 0.653 ± 0.21.
With STWDESWLHVLRWREFATLQ the figure was 1.11 ± 0.22.
With LGTLGYTDAILWNYMSHCKG the entry was “inactive”.
LGVFWIDWPLLLGFRSRTGV came in with an amyloid nucleation score of -0.393 ± 1.1.
As for PYRLHMCCWEPLRSMLFMSF, the figure is 1.03 ± 0.31.
As for EIVLFFCPVVKCME, the figure is 3.08 ± 0.098.
Regarding SHISDVSKD, the amyloid nucleation score was 0.679 ± 0.26.
YPYDWSLLVLELVRQILSMG yielded an amyloid nucleation score of 0.704 ± 0.47.
With KAWLSSKITKM the figure was 0.131 ± 1; with VFRISLRSSLYML, 4.13 ± 0.099.
With FLFSIF the entry was “inactive”; with YFGVLFPVMNWQLSWKNIYW, “inactive”.
